Where no end group is shown, it is not given here. [ ]: non-standard residue; d: D form. The star is where a group is joined. boroPro = OB(O)[C@@H]1CCCN1*
Columns and labels:
[1] = target: Dipeptidyl amino peptidase type IV (DPP IV); test: cell-based or functional assay
[2] = target: Dipeptidyl amino peptidase type IV (DPP IV); test: cell-based or functional assay; remark: listed apart in the source

B1: AlaAlaProboroPro (peptide)
peptide: AAP[boroPro]
B1 was tested, and the “IC50 at ten minutes, pH 2” value [1] was 3 µM, the “IC50, pH 2 (Tetrapeptide Prodrugs)” value [2] was 3 mM and the “IC50, pH 8 (Tetrapeptide Prodrugs)” value [2] was 2 mM.

B2: TyrProPheboroPro (peptide)
peptide: YPF[boroPro]
B2 was tested, and the “IC50 at ten minutes, pH 2” value [1] was 50 nM and the “IC50 at ten minutes, pH 8” value [1] was 60 nM.
